{"source": "patent US6602659", "target": "human ST receptor protein (human) (UniProt P25092)", "sequence (P25092 other isoform, or with tags, fused parts or gaps limits assumed)": "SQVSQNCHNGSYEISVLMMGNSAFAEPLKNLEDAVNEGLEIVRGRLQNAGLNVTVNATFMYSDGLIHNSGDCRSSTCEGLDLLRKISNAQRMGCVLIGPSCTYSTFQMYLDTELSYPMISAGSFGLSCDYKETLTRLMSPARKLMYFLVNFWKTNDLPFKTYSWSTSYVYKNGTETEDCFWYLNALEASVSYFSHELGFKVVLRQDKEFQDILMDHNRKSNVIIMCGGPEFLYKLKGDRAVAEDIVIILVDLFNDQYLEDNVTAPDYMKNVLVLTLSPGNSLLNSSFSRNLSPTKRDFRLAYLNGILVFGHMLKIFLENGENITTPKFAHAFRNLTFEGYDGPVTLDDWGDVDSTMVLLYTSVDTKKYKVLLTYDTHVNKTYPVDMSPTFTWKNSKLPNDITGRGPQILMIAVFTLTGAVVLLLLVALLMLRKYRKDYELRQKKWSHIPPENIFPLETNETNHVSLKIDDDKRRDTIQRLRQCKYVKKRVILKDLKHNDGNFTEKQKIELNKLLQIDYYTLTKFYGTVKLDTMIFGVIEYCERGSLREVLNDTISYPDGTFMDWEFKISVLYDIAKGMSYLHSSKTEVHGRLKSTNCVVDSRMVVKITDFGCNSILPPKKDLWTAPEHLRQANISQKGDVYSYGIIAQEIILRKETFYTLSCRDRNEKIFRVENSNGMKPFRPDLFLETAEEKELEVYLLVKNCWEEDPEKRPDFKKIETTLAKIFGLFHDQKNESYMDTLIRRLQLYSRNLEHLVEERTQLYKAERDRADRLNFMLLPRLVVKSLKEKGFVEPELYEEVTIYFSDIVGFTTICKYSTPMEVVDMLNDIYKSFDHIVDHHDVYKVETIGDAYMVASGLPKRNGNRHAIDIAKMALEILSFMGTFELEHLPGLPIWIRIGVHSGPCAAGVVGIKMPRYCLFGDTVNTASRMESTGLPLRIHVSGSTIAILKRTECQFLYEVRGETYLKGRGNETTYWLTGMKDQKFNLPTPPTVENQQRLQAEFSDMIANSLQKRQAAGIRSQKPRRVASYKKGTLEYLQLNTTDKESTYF", "assay": "receptor binding on colorectal tumor samples (local and metastasized); method and ligand not described", "data": [{"substance": "heat-stable toxin (ST) (peptide)", "values": [{"measurement": "affinity", "value": "< 1e-07"}]}]}
